Experimental data from patent publication US20250313621A1 (NXERA PHARMA UK, published 2025).

T1: Soluble PAR2 StaR (recombinant human PAR2 StaR protein in detergent, construct not stated) (human, UniProt P55085 37-377, limits assumed)
T1 construct: also called purified PAR2
T1 sequence: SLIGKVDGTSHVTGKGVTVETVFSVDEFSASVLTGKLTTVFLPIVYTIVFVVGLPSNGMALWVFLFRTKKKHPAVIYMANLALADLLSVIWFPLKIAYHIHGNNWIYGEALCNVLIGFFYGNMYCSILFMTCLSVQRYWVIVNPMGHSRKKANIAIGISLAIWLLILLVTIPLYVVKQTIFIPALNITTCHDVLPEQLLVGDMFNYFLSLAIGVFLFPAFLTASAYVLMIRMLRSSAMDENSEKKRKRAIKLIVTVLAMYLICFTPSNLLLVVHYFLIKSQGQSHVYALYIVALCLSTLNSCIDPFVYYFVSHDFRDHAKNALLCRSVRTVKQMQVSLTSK

T2: Wildtype human PAR 1 (human, UniProt P25116 42-425)
T2 sequence: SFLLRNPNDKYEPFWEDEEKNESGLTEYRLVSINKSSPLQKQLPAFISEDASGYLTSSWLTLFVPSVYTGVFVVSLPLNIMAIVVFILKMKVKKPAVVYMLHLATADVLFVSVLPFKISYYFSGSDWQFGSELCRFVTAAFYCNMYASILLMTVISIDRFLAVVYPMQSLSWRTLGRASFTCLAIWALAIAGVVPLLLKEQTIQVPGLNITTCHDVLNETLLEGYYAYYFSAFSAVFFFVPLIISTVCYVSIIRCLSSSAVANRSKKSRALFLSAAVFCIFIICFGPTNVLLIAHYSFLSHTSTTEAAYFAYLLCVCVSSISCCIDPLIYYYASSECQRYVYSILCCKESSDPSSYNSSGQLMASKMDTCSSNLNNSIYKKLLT

T3: PAR2-3: P157: 1-377, glycosylated, pBacMamHisStrepII, full length (human, UniProt P55085 26-377)
T3 construct: detergent-solubilised analyte in SPR, or on infected cells in flow cytometry; also called FL-N PAR2 StaR; FL-N StaR; not shown: C-terminal StrepII and deca-histidine tags
T3 sequence: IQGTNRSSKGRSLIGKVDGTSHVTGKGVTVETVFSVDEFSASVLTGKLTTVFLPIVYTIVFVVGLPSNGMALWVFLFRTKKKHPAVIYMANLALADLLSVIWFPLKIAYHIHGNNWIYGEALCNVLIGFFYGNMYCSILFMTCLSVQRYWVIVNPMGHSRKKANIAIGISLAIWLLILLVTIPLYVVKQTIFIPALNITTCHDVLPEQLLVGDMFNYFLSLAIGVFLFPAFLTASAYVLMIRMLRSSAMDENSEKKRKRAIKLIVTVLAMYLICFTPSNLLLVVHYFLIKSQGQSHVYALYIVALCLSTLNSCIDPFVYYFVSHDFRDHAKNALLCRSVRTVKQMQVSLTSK


How the values were obtained:
[1] = biological target: T1, Soluble PAR2 StaR (recombinant human …); experiment: SPR Biacore T200; IgG captured, PAR2 as analyte; 25 C, 90 min dissociation
Wildtype human PAR 1 = biological target: T2, Wildtype human PAR 1; experiment: cell-based or functional assay
[2] = biological target: T1, Soluble PAR2 StaR (recombinant human …); experiment: SPR Biacore T200; IgG captured, PAR2 as analyte; 25 C, 30 min dissociation
Experimental: The assay of PAR2 interaction with anti-PAR2 antibodies was carried out using a Biacore T200 instrument (GE Healthcare). Anti-human IgG antibody (Human Antibody Capture Kit, GE Healthcare) was immobilised by amine coupling in the target and reference flow cells of sensor chip CM3 (GE Healthcare) to a surface density of 2700 to 3000 resonance units (RU). Immobilisation was carried out at 25° C. in HBS-EP+buffer (GE Healthcare). The buffer was then changed to 50 mM HEPES, pH 7.5, 150 mM NaCl, 0.02% LMNG, 0.002% CHS for the PAR2-antibody interaction assay which was carried out at either 25 or 37° C. Each cycle of the assay began with antibody capture in the target flow cell to a level of 400 to 450 RU. PAR2 was then injected over target and reference flow cells at three concentrations, 5 min each, followed by 30-min dissociation. The surface was then regenerated with a solution provided in the kit (Human Antibody Capture Kit, GE Healthcare). With every antibody tested the first cycle was a blank (three injections of the running buffer) and the second a series of 50, 100, and 200 nM PAR2 injections.

[3] = biological target: T3, PAR2-3: P157: 1-377, glycosylated, …; experiment: SPR (table head: Octet); IgG captured via Fc, FL-N PAR2 StaR as analyte; koff at the lower assay limit
Experimental: For all eleven IgG1f_AEASS, affinities to human PAR2 were determined by SPR. The IgGs were captured via their Fc-fragment and detergent (LMNG/CHS) solubilised FL-N PAR2 StaR was used as analyte in solution. 50 mM HEPES pH 7.5, 150 mM NaCl, 0.02% LMNG was used as assay buffer. To minimize artefacts introduced by non-specific interaction of FL-N PAR2 StaR with the sensors, the CM3 sensors were used as basis to immobilize a high density of anti-hu-Fc capture antibody (BR-1008-39, GE Healthcare). IgGs were captured with relatively high levels of approximately 500 RU to achieve a higher ratio of specific to non-specific binding (while still maintaining conditions suitable for kinetic characterization). Affinities ranged from 6.5 nM to 130 pM. The koff values of the best candidates were at the lower assay limit. A minimum koff of 2.00E-05 s⁻¹ was reported (corresponding to 3% dissociation in 1500 s).

Row | Binder | Kd [1] | koff [1] | kon [1] | t½ [1] | Human PAR1 SFLLR IC50, IP-One (Wildtype human PAR 1) | SFLLR fold inhibition, human PAR1, IP-One (Wildtype human PAR 1) | Kd [2] | koff [2] | kon [2] | t½ [2] | Kd [3]
1 | Y022870 (antibody, human IgG1, lambda, V domains shown, also called Y22870) VH: EVQLLESGGGLVQPGGSLRLSCAASGFSFSRYAITWVRQAPGKGLEWVSTISALGLETYYAESVRGRFTISRDNSKNTLYLQMNSLRAEDTAVYYCARGFHYTHSGKRYYYPFDIWGQGTLVTVSS VL: QSALTQPASVSGSPGQSITISCTGTSSDVGSYNLVSWYQQHPGKAPKLMIYEGSKRPSGVSNRFSGSKSGNTASLTISGLQAEDEADYYCSQYATFIAFAVFGGGTKLTVLG | 0.21 nM | 7e-06 s⁻¹ | 34000 M⁻¹ s⁻¹ | 27.6 h | > 3160 nM | 0 fold | 0.43 nM | 1.2e-05 s⁻¹ | 28000 M⁻¹ s⁻¹ | 16.1 h | ≤ 0.21 nM
2 | Y022883 (antibody, human IgG1, lambda, V domains shown, also called Y22883; Y02283) VH: EVQLLESGGGLVQPGGSLRLSCAASGFSFTRYAISWVRQAPGKGLEWVSVISGHGSEANYAESVKGRFTISRDNSKNTLYLQMNSLRAEDTAVYYCARGFHYTHSGKRYYYPFDIWGQGTLVTVSS VL: QSALTQPASVSGSPGQSITISCTGTSSDVGSYNLVSWYQQHPGKAPKLMIYEGSKRPSGVSNRFSGSKSGNTASLTISGLQAEDEADYYCSQYATFIAFAVFGGGTKLTVLG | 0.4 nM | 1.2e-05 s⁻¹ | 30000 M⁻¹ s⁻¹ | 16.2 h | > 3160 nM | 0 fold | 0.2 nM | 8.1e-06 s⁻¹ | 40000 M⁻¹ s⁻¹ | 23.7 h | 0.14 nM
3 | Y022877 (antibody, human IgG1, lambda, V domains shown, also called Y22877) VH: EVQLLESGGGLVQPGGSLRLSCAASGFTFSRYAMTWVRQAPGKGLEWVSTISGLGQEAYYAGSVKGRFTISRDNSKNTLYLQMNSLRAEDTAVYYCARGFHYTHSGKRYYYPFDIWGQGTLVTVSS VL: QSALTQPASVSGSPGQSITISCTGTSSDVGSYNLVSWYQQHPGKAPKLMIYEGSKRPSGVSNRFSGSKSGNTASLTISGLQAEDEADYYCSQYATFIAFAVFGGGTKLTVLG | 0.3 nM | 8e-06 s⁻¹ | 27000 M⁻¹ s⁻¹ | 24.1 h | > 3160 nM | 0 fold | 0.23 nM | 5.1e-06 s⁻¹ | 22000 M⁻¹ s⁻¹ | 37.9 h | 0.29 nM
